Assays:
BSA [1] = biological target: T1, BSA (Bos taurus, UniProt P02769); assay: micropanning: monoclonal phage on BSA coated on a 96-well plate, bound phage eluted and counted
T1 construct: commercial protein; also called Bovine Serum Albumine

RNaseA [2] = biological target: T2, RNaseA (Bos taurus, UniProt P61823); assay: phage ELISA, multivalent display, immobilised RNaseA, anti-M13 antibody and HRP-conjugated secondary antibody, absorbance
T2 construct: commercial protein
T2 sequence (single chain, looked up): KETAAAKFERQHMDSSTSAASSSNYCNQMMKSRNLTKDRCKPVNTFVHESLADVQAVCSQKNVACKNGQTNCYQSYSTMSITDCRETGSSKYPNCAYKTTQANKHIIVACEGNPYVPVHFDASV
Procedure: (§1) Phage ELISA experiments were performed to analyse selected clones for binding to lysozyme. Ninety-six-well ELISA plates were coated with 5 ug/ml hen egg lysozyme, 5 ug/ml RNaseA or 1% BSA in PBS at 4° C. overnight. After two washes with TBS, plates were blocked with blocking buffer (5% skim milk in TBS) for one hour at RT before phage (10^9 cfu/well, derived from VCS-M13d3) were added in 2.5% skim milk-TBS-T. Plates were incubated for 2 hours at RT with agitation. After 10 washes with H_2O, mouse anti-M13 protein VIII diluted in blocking buffer was added and incubated for 1 h at RT. Plates were washed 4 times with H_2O and horseradish peroxidase (HRP)-coupled rabbit-anti-mouse immunoglobulins (Pierce) in blocking buffer were added to the wells and incubated for 1 h at RT. Wells were washed 4 times with H_2O and 50 ul substrate solution (1 mg/ml o-phenylene-diamine in PBS 0.030% H_2O_2) was added per well. The reaction was stopped after ~15 min by addition of 25 ul 2.5 M H_2SO_4 and the absorbance was recorded at 492 nm.
(§2) BSA (white), RNaseA (hatched) and hen egg white lysozyme (black) were immobilised and incubated with monoclonal phage samples. Bound particles were detected with a mouse anti-M13 primary antibody and an HRP-conjugated anti-mouse secondary antibody. […] Bound phage were eluted and counted by bacterial infection.

hen egg white lysozyme [3] = biological target: T3, hen egg white lysozyme (Gallus gallus, UniProt P00698 19-147); assay: phage ELISA, multivalent display, immobilised hen egg white lysozyme, anti-M13 antibody and HRP-conjugated secondary antibody, absorbance
T3 construct: mature; The residue numbers E35, D52, W63, D101 and N103 fit mature numbering; also called hen egg lysozyme; Gallus gallus egg white lysozyme
Procedure: as §1, §2

hen egg white lysozyme [4] = biological target: T3, hen egg white lysozyme; assay: micropanning: monoclonal phage on lysozyme coated on a 96-well plate, bound phage eluted and counted by bacterial infection
Procedure: BSA (white), RNaseA (hatched) and hen egg white lysozyme (black) were immobilised and incubated with monoclonal phage samples. Bound particles were detected with a mouse anti-M13 primary antibody and an HRP-conjugated anti-mouse secondary antibody. […] A 96-well plate was coated with lysozyme (black bars) or BSA (white bars) and incubated with monoclonal phage samples from clones picked after 6 rounds of selection. Bound phage were eluted and counted by bacterial infection.
Hen egg white lysozyme is a small stable protein which is commercially available and has a number of medically important human homologues. After four rounds of panning on immobilised lysozyme, enrichment of bound phage was observed. A further two more rounds of panning were performed before clones were randomly picked and screened for binding to lysozyme. Monoclonal phage samples were then prepared and studies were undertaken to characterize binding in a 'micropanning' approach on lysozyme immobilised on a 96-well ELISA plate. Bound phage were eluted and counted. […] These clones were sequenced. Sequences for some of the clones were identical (L14 and L15; L4 and L18; L8 and L21) narrowing down the number of unique clones to six.

hen egg white lysozyme [5] = biological target: T3, hen egg white lysozyme; assay: phage ELISA on immobilised lysozyme, multivalent display
BSA [6] = biological target: T1, BSA; assay: phage ELISA, immobilised BSA, anti-M13 antibody and HRP-conjugated secondary antibody, absorbance
RNaseA [7] = biological target: T2, RNaseA; assay: phage ELISA, immobilised RNaseA, anti-M13 antibody and HRP-conjugated secondary antibody, absorbance
hen egg white lysozyme [8] = biological target: T3, hen egg white lysozyme; assay: surface plasmon resonance; L8, from the crystal-structure interface table
hen egg white lysozyme [9] = biological target: T3, hen egg white lysozyme; assay: SPR (Biacore), lysozyme amine-coupled to CM5 chip, L6 as analyte from 370 µM in 1:2 dilutions, steady-state response plot
Procedure: The ligand lysozyme was coupled to a CM5 Biacore sensor chip, at 30 µg/mL in sodium acetate buffer at pH 4.3 via the primary amine groups of the protein. The second of four flow cells available on the chip was activated with 35 µL, at 5 µL/min, of a 1:1 mixture of EDC:NHS (commercially available from Biacore). Lysozyme was coupled to the activated surface with successive injections of between 10-20 µL, until an adequate response was seen. Remaining uncoupled active groups on the chip were deactivated with an injection of ethanolamine-HCl. For analysis, OB3 13mRL L6 was organized in a 1:2 dilution series of six concentrations, beginning at 370 µM in running buffer, plus a buffer-only blank. Each of the seven samples were analyzed in duplicate for 1 min @ 25 µL/min, in random order, using the first flow cell as a reference. The response curves were visualized and processed using BIAevaluation (Biacore). Relative response at each concentration was averaged and plotted to determine Rmax and kD using Sigma Plot (Systat Software, Inc.).

T3 sequence (P00698 19-147): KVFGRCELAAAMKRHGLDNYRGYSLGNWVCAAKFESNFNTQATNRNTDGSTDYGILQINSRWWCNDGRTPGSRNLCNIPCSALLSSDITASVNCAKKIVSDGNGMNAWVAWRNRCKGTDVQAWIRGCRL
T1 sequence (P02769 25-607 limits assumed): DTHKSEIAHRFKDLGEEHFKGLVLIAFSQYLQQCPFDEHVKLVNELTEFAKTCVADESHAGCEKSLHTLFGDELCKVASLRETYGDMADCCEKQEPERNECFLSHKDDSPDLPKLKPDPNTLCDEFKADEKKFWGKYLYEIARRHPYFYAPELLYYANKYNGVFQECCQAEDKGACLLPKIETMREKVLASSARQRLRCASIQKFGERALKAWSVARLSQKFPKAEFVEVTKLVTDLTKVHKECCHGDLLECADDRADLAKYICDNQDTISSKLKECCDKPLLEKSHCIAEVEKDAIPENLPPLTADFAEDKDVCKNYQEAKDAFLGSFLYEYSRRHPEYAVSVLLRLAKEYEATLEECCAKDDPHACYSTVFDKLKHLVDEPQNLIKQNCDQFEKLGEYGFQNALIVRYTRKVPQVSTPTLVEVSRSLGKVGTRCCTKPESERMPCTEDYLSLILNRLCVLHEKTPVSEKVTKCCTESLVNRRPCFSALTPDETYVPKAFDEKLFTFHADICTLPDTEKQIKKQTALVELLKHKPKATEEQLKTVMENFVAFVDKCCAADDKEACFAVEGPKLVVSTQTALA

B1: L14 (aspRS-OB 13mRL mutant) displayed on phage as pIII fusion (designed binder)
chain: VYPKKTHWTAEITPNLHGTEVVVAGWVSDLLDAGRAKYVFVYDREGGAEVMVTLAAGKTPDHLFKVFAELSREDVVVIKGIVEASKGWRDGVEIFPSEIWILNKAKPLPID
notes: Monoclonal phage; also called L15; L32; not shown: c-myc tag and pIII of phagemid pRPSP2 (display carriers at the C end)
Does B1 bind (BSA [1])?
Result: no binding

Does B1 bind (RNaseA [2])?
Result: binds

Does B1 bind (hen egg white lysozyme [3])?
Result: binds

B2: L16 (aspRS-OB 13mRL mutant) displayed on phage as pIII fusion (designed binder)
chain: VYPKKTHWTAEITPNLHGTEVVVAGWVASLVDGGPRKWVFVRDREGGAEVTVELTAGKTPDHLFKVFAELSREDVVVIKGIVEASKGLRWGVEIFPSEIWILNKAKPLPID
notes: Monoclonal phage, monovalent display, micropanning only; not shown: c-myc tag and pIII of phagemid pRPSP2 (display carriers at the C end)
Does B2 bind (BSA [1])?
Result: no binding

Does B2 bind (hen egg white lysozyme [4])?
Result: binds

B3: L34 (aspRS-OB 13mRL mutant) displayed on phage as pIII fusion (designed binder)
chain: VYPKKTHWTAEITPNLHGTEVVVAGWVVGLMDEGALKGVEVRDREGGAPVEVTLEAGKTPDHLFKVFAELSREDVVVIKGIVEASKGYGSGVEIFPSEIWILNKAKPLPID
notes: Monoclonal phage, multivalent display, ELISA; not shown: c-myc tag and pIII of phagemid pRPSP2 (display carriers at the C end)
Which results are given for B3?
binding result (hen egg white lysozyme [5]): binds; binding result (BSA [6]): no binding (tested: 10^9 cfu/well); binding result (RNaseA [7]): no binding (tested: 10^9 cfu/well)

B4: L5 (aspRS-OB 13mRL mutant) displayed on phage as pIII fusion (designed binder)
chain: VYPKKTHWTAEITPNLHGTEVVVAGWVTDLVDAGTWKFVQVADREGGANVWVSLVAGKTPDHLFKVFAELSREDVVVIKGIVEASKLPSYGVEIFPSEIWILNKAKPLPID
notes: Monoclonal phage; Monovalent display in micropanning, multivalent display in ELISA; not shown: c-myc tag and pIII of phagemid pRPSP2 (display carriers at the C end)
Does B4 bind (BSA [1])?
Result: no binding

Does B4 bind (hen egg white lysozyme [3])?
Result: binds

B5: L8 (aspRS-OB 13mRL mutant) displayed on phage as pIII fusion (designed binder)
chain: VYPKKTHWTAEITPNLHGTEVVVAGWVASLGDYGRVKIVKVSDREGGAAVPVYLEAGKTPDHLFKVFAELSREDVVVIKGIVEASKGVGRGVEIFPSEIWILNKAKPLPID
notes: Monoclonal phage; also called L21; L33; not shown: c-myc tag and pIII of phagemid pRPSP2 (display carriers at the C end)
Does B5 bind (BSA [1])?
Result: no binding

B6: OBody L8, purified, GST tag removed (designed binder)
chain: VYPKKTHWTAEITPNLHGTEVVVAGWVASLGDYGRVKIVKVSDREGGAAVPVYLEAGKTPDHLFKVFAELSREDVVVIKGIVEASKGVGRGVEIFPSEIWILNKAKPLPID
notes: GST tag removed with rTEV protease; Used for co-crystallisation with lysozyme
Which Kd (hen egg white lysozyme [8]) does the source give for B6 here?
The Kd was 36 µM.

B7: L6 (aspRS-OB 13mRL mutant) displayed on phage as pIII fusion (designed binder)
chain: VYPKKTHWTAEITPNLHGTEVVVAGWVEDLVDAGKTKWVFVCDREGGAQVIVELVAGKTPDHLFKVFAELSREDVVVIKGIVEASKSRAVGVEIFPSEIWILNKAKPLPID
notes: as for B4
Does B7 bind (BSA [1])?
Result: no binding

B8: OB3 13mRL L6, expressed and purified (designed binder)
chain: VYPKKTHWTAEITPNLHGTEVVVAGWVEDLVDAGKTKWVFVCDREGGAQVIVELVAGKTPDHLFKVFAELSREDVVVIKGIVEASKSRAVGVEIFPSEIWILNKAKPLPID
notes: Analyte in the Biacore experiment; also called Clone L6; selected OB-fold domain L6
With B8 as the binder, how does the Kd (hen egg white lysozyme [9]) read?
The Kd was 36 µM.

From patent publication US9181543 (OBODIES, dated 2015)
